Assay results reported in patent US20190023771A1 (MERZ PHARMA, published 2019).

Target: T1, non-cleaved SNAP-25206 (UniProt P60880 1-206)
T1 construct: range 1-206; also called SNAP-25206 uncleaved substrate
Experiment: ELISA and Western blots

T1 sequence (P60880 whole entry): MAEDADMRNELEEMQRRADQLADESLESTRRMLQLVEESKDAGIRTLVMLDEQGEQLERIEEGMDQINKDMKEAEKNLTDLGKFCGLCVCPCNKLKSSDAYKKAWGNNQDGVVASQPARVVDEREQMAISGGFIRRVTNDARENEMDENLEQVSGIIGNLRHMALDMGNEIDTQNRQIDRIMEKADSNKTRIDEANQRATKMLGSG

B1: mouse monoclonal antibody produced by hybridoma pCNEI 32-7-1, 3614-000 (antibody, V domains shown)
VH: EVQLVESGGGLVQPKGSLKLSCAASGYTFNTYAVNWVRQAPGKGLEWVARIRSKSYNYVTYYADSVKDRFTISRDDSQSMLYLQMNNLKTEDTAMYYCVKGNGNYVSFAYWGQGTLVTVSA
VL: QLVLTQSSSASFSLGASAKLTCTLSSQHNTYTIEWYQQQPLKPPKYVMELKKDGSHSTGDGIPDRFSGSSSGADRYLSISNIQPEDEAIYICGVGDTIKEQFVYVFGGGTKVTVL
notes: also called monoclonal antibody of the invention; DSM ACC3261
- binding result: no binding
